Consider one molecule from US20100256332A1, “GLP-1 Fusion Peptides, Their Production and Use” (BIOCOMPATIBLES UK LTD, priority 2007, published 2010).

The assay deals with type II diabetic mice (C57BUKs-Lepr db/db). Briefly: In vivo bioactivity in type II diabetic mice. More on the design: species or system mouse. The settings on record: 5 μg peptide s.c. twice a day, Day 2, 4, 7, 10, overnight fasted. As to the method:
11-week-old type II diabetic mice (C57BUKs-Lepr^db/db, Harlan) were treated with 5 μg peptide by subcutaneous injection twice a day at 9 a.m. and 5 p.m. (n=5 per group).
Blood glucose was measured before (day 0) and after treatment with GLP^CM peptides (Day 2, 4, 7, 10) at 10 a.m. after an overnight fastening period. Data were presented in relation to blood glucose levels measured at day 0.
Best results were obtained with recombinant SEQ ID No.:6 (CM1) and synthetic SEQ ID No.:8 (CM3). In FIG. 5 (y-axis) the relative effect of the treatment is shown. Blood glucose at day=0 was set to 1. Untreated animals undergo continuous increase in blood glucose level over time, whereas animals treated with inventive peptides display grosso modo a continuous decrease of the blood glucose level over time.

B1: GLP-1(7-37)-IP2-RR-GLP2 (peptide)
chain: HAEGTFTSDVSSYLEGQAAKEFIAWLVKGRGRRDFPEEVAIAEELGRRHADGSFSDEMSTILDNLATRDFINWLIQTKITDKK
notes: 83 aa fusion peptide
Turning to B1, the “anti-hyperglycemia effect (blood glucose in relation to day 0)” value is reported as “anti-hyperglycemia effect”.
